Experimental data: patent US20100184701A1 (TREVENA, published 2010)
Non-standard residues stand in square brackets, D forms with d. No end group written: not given here. Sar = CNCC(=O)O

T1: rat angiotensin 2 type 1 receptor (rat, UniProt P25095 1-359)
T1 sequence (looked up): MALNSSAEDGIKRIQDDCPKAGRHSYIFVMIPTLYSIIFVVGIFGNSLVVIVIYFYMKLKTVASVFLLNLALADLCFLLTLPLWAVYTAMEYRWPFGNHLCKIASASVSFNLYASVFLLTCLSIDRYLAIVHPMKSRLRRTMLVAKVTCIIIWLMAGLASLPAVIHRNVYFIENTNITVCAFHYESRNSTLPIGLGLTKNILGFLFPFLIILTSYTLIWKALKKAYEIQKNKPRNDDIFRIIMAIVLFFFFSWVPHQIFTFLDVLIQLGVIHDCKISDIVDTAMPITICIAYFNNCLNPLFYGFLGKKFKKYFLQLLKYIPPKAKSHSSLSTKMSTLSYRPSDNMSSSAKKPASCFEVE

T2: human angiotensin 2 type 1 receptor (human, UniProt P30556 1-359)
T2 sequence (looked up): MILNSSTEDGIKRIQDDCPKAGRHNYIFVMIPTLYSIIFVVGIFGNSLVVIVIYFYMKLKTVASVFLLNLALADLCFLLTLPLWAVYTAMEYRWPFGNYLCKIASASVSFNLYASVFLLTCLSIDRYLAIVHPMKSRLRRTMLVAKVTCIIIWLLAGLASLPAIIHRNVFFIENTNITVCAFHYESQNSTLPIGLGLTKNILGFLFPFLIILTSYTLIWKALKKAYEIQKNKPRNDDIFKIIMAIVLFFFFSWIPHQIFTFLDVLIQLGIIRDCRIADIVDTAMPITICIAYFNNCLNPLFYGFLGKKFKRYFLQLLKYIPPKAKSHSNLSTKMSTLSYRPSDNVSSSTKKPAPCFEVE

B1: SEQ ID NO: 52 (peptide)
peptide: XRVYYHP
modifications: Sar (sarcosine) at 1
B2: SEQ ID NO: 32 (peptide)
peptide: GRVYIHPA
modifications: Me2G (N,N-dimethylglycine) at 1
B3: SEQ ID NO: 51 (peptide)
peptide: XRVYIHP
modifications: Sar (sarcosine) at 1; D-Pro at 7; C-terminal amide (NH2)
B4: SEQ ID NO: 40 (peptide)
peptide: [Sar]RVYEHP-NH2
modifications: N-terminus assumed
SMILES: CNCC(=O)N[C@@H](CCCNC(=N)N)C(=O)N[C@H](C(=O)N[C@@H](Cc1ccc(O)cc1)C(=O)N[C@@H](CCC(=O)O)C(=O)N[C@@H](Cc1c[nH]cn1)C(=O)N1CCC[C@H]1C(N)=O)C(C)C
B5: SEQ ID NO: 42 (peptide)
peptide: [Sar]RVYHHP-NH2
modifications: N-terminus assumed
SMILES: CNCC(=O)N[C@@H](CCCNC(=N)N)C(=O)N[C@H](C(=O)N[C@@H](Cc1ccc(O)cc1)C(=O)N[C@@H](Cc1c[nH]cn1)C(=O)N[C@@H](Cc1c[nH]cn1)C(=O)N1CCC[C@H]1C(N)=O)C(C)C
B6: SEQ ID NO: 41 (peptide)
peptide: [Sar]RVYFHP-NH2
modifications: N-terminus assumed
SMILES: CNCC(=O)N[C@@H](CCCNC(=N)N)C(=O)N[C@H](C(=O)N[C@@H](Cc1ccc(O)cc1)C(=O)N[C@@H](Cc1ccccc1)C(=O)N[C@@H](Cc1c[nH]cn1)C(=O)N1CCC[C@H]1C(N)=O)C(C)C
B7: SEQ ID NO: 53 (peptide)
peptide: [Sar]RVY[dA]HP-NH2
modifications: N-terminus assumed
SMILES: CNCC(=O)N[C@@H](CCCNC(=N)N)C(=O)N[C@H](C(=O)N[C@@H](Cc1ccc(O)cc1)C(=O)N[C@H](C)C(=O)N[C@@H](Cc1c[nH]cn1)C(=O)N1CCC[C@H]1C(N)=O)C(C)C
B8: SEQ ID NO: 31 (peptide)
peptide: GRVYVHPA
modifications: Me2G (N,N-dimethylglycine) at 1
B9: SEQ ID NO: 50 (peptide)
peptide: [Sar]RVYIKP[dA]-OH
modifications: N-terminus assumed
SMILES: CC[C@H](C)[C@H](NC(=O)[C@H](Cc1ccc(O)cc1)NC(=O)[C@@H](NC(=O)[C@H](CCCNC(=N)N)NC(=O)CNC)C(C)C)C(=O)N[C@@H](CCCCN)C(=O)N1CCC[C@H]1C(=O)N[C@H](C)C(=O)O
B10: SEQ ID NO: 36 (peptide)
peptide: RVYIHPRVYIHPRVYIHP
modifications: cyclic, as printed: Cyclo(...)
B11: SEQ ID NO: 48 (peptide)
peptide: XRVFIHPA
modifications: Sar (sarcosine) at 1; D-Ala at 8
B12: SEQ ID NO: 34 (peptide)
peptide: ARVYIHPA
modifications: NMAla (N-methyl-L-alanine) at 1
B13: SEQ ID NO: 43 (peptide)
peptide: [Sar]RVYKHP-NH2
modifications: N-terminus assumed
SMILES: CNCC(=O)N[C@@H](CCCNC(=N)N)C(=O)N[C@H](C(=O)N[C@@H](Cc1ccc(O)cc1)C(=O)N[C@@H](CCCCN)C(=O)N[C@@H](Cc1c[nH]cn1)C(=O)N1CCC[C@H]1C(N)=O)C(C)C
B14: SEQ ID NO: 38 (peptide)
peptide: VYIHPF
modifications: cyclic, as printed: Cyclo(...)
B15: SEQ ID NO: 55 (peptide)
peptide: [Sar]RVYVH-NH2
modifications: N-terminus assumed
SMILES: CNCC(=O)N[C@@H](CCCNC(=N)N)C(=O)N[C@H](C(=O)N[C@@H](Cc1ccc(O)cc1)C(=O)N[C@H](C(=O)N[C@@H](Cc1c[nH]cn1)C(N)=O)C(C)C)C(C)C
B16: SEQ ID NO: 49 (peptide)
peptide: [Sar]KVYIHP[dA]-OH
modifications: N-terminus assumed
SMILES: CC[C@H](C)[C@H](NC(=O)[C@H](Cc1ccc(O)cc1)NC(=O)[C@@H](NC(=O)[C@H](CCCCN)NC(=O)CNC)C(C)C)C(=O)N[C@@H](Cc1c[nH]cn1)C(=O)N1CCC[C@H]1C(=O)N[C@H](C)C(=O)O
B17: SEQ ID NO: 47 (peptide)
peptide: ARVYIHPA
modifications: NM-D-Ala (N-methyl-D-alanine) at 1
B18: SEQ ID NO: 33 (peptide)
peptide: ARVYVHPA
modifications: NMAla (N-methyl-L-alanine) at 1
B19: SEQ ID NO: 46 (peptide)
peptide: ARVYIHPA
modifications: NMAla (N-methyl-L-alanine) at 1; D-Ala at 8
B20: SEQ ID NO: 44 (peptide)
peptide: ARVYIHPA
modifications: NMAla (N-methyl-L-alanine) at 1; D-Ala at 8
B21: SEQ ID NO: 45 (peptide)
peptide: [Sar]RVYRHP-NH2
modifications: N-terminus assumed
SMILES: CNCC(=O)N[C@@H](CCCNC(=N)N)C(=O)N[C@H](C(=O)N[C@@H](Cc1ccc(O)cc1)C(=O)N[C@@H](CCCNC(=N)N)C(=O)N[C@@H](Cc1c[nH]cn1)C(=O)N1CCC[C@H]1C(N)=O)C(C)C
B22: SEQ ID NO: 25 (peptide)
peptide: DRVYIHPA
B23: SEQ ID NO: 54 (peptide)
peptide: XRVYVHP
modifications: Sar (sarcosine) at 1
B24: SEQ ID NO: 37 (peptide)
peptide: FVYIHPFVYIHPFVYIHP
modifications: cyclic, as printed: Cyclo(...)
B25: SEQ ID NO: 56 (peptide)
peptide: DRVYIHPG-OH

Molecular target: T1, rat angiotensin 2 type 1 receptor
Experiment: cell-based or functional assay

| IP One EC50 [nM] | IP One Max (%) | b-arrestin2 EC50 [nM] | b-arrestin2 Max (%) | IP One EC50 (M) | Binder |
| --- | --- | --- | --- | --- | --- |
| 300 | 8 | 440 | 83.8 | – | B1 |
| – | 6.8 | – | 80.2 | – | B2 |
| – | – | 110 | 5.8 | > 1e-05 | B3 |
| – | – | 31 | 87.9 | > 1e-05 | B4 |
| – | – | 270 | 74.9 | > 1e-05 | B5 |
| – | – | 660 | 53.1 | > 1e-05 | B6 |
| – | – | 420 | 12.2 | > 1e-05 | B7 |
| 13 | 6.2 | – | 75.9 | – | B8 |
| – | – | 270 | 85.6 | > 1e-05 | B9 |
| 100 | 19.2 | 1900 | 32.8 | – | B10 |
| – | 13.9 | – | 42.1 | – | B11 |
| – | – | 32 | 81.7 | > 1e-05 | B12 |
| 260 | 17.9 | 910 | 64.8 | – | B13 |
| – | 20.8 | 2500 | 66.4 | – | B14 |
| 6.8 | 98.8 | 42 | 95.6 | – | B15 |
| – | – | 630 | 52.9 | > 1e-05 | B16 |
| – | – | 2100 | 72.2 | > 1e-05 | B17 |
| – | – | 31 | 86.9 | > 1e-05 | B18 |
| – | – | 63 | – | > 1e-05 | B19 |
| 8.2 | 14.6 | – | – | – | B20 |
| 26 | 10.2 | 27 | 91.7 | – | B21 |
| – | 14.1 | – | 77 | – | B22 |
| – | – | 17 | 83 | > 1e-05 | B23 |
| – | 14.7 | 1900 | 60.7 | – | B24 |
| 20 | 98.4 | 160 | 98.5 | – | B25 |

Molecular target: T2, human angiotensin 2 type 1 receptor
Experiment: cell-based or functional assay

| b-arrestin2 EC50 [nM] | b-arrestin2 Max (%) | IP One EC50 (M) | IP One EC50 [nM] | IP One Max (%) | Binder |
| --- | --- | --- | --- | --- | --- |
| 1400 | 45.9 | – | – | – | B1 |
| – | 55.6 | – | – | – | B2 |
| 330 | 20.2 | > 1e-05 | – | – | B3 |
| 95 | 53.2 | > 1e-05 | – | – | B4 |
| 630 | 46.4 | > 1e-05 | – | – | B5 |
| 1600 | 30.1 | > 1e-05 | – | – | B6 |
| 1600 | 33.6 | > 1e-05 | – | – | B7 |
| 100 | 58.1 | – | – | – | B8 |
| 680 | 56.8 | > 1e-05 | – | – | B9 |
| 1200 | 39.5 | > 1e-05 | – | – | B10 |
| 1800 | 48.1 | > 1e-05 | – | – | B11 |
| 25 | 53 | > 1e-05 | – | – | B12 |
| 2100 | 42.7 | > 1e-05 | – | – | B13 |
| 680 | 43.1 | > 1e-05 | – | – | B14 |
| 220 | 92.7 | – | 96 | 97.6 | B15 |
| 1000 | 72.7 | > 1e-05 | – | – | B16 |
| 4800 | 80.5 | > 1e-05 | – | – | B17 |
| – | 54.9 | > 1e-05 | – | – | B18 |
| – | – | > 1e-05 | – | – | B19 |
| – | – | > 1e-05 | – | – | B20 |
| 30 | 53.3 | > 1e-05 | – | – | B21 |
| – | 57.9 | – | – | – | B22 |
| 42 | 58.6 | > 1e-05 | – | – | B23 |
| – | 62.3 | > 1e-05 | – | – | B24 |
| 550 | 104 | – | 660 | 96.5 | B25 |
